What was measured:
[1] = target: T1, human FcγRIA α subunit extracellular domain-His6-GST fusion (human, UniProt P12314 16-292); assay: FcγRI ELISA and THP-1 cells, averaged
T1 construct: extracellular domain; also called GST-FcγRIA; CD64; not shown: glutathione S transferase (GST)

[2] = target: T2, human FcγRIIA-Arg131 α subunit extracellular domain-His6-GST fusion (human, UniProt P12318 34-217); assay: hexamer ELISA
T2 construct: extracellular domain; also called FcγRIIA-R131; not shown: glutathione S transferase (GST)
T2 sequence: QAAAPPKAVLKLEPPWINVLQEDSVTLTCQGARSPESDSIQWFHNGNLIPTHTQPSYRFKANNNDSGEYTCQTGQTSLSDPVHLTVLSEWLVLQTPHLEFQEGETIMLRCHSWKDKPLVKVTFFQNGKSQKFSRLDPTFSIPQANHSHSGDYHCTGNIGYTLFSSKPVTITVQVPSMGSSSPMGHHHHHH

[3] = target: T3, human FcγRIIB α subunit extracellular domain-His6-GST fusion (human, UniProt P31994 43-217); assay: hexamer ELISA
T3 construct: extracellular domain; also called CD32; not shown: glutathione S transferase (GST)
T3 sequence: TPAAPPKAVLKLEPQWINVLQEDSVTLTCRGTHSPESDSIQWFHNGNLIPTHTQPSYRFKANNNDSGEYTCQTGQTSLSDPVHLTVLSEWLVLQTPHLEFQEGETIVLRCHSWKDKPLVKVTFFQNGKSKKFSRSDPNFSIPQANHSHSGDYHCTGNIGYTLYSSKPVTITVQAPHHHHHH

[4] = target: T4, human FcγRIIIA-Phe158 α subunit extracellular domain-His6-GST fusion (human, UniProt P08637 17-208); assay: hexamer ELISA
T4 construct: extracellular domain; also called FcγRIIIA-F158; CD16; not shown: glutathione S transferase (GST)

[5] = target: T5, human neonatal Fc receptor (FcRn), biotinylated (human, UniProt P55899 24-297; P61769 21-119, biotinylated (biotin-X-NHS)); assay: FcRn ELISA, pH 6.0;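 note: Streptavidin-captured FcRn plates, IgG variants titrated 2 h at pH 6.0, peroxidase anti-human IgG read at 450 nm, variant over standard concentration at the standard curve mid-point absorbance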
T5 construct: captured on streptavidin plates
T5 sequence (P55899 24-297 limits assumed, chain 1 of 2): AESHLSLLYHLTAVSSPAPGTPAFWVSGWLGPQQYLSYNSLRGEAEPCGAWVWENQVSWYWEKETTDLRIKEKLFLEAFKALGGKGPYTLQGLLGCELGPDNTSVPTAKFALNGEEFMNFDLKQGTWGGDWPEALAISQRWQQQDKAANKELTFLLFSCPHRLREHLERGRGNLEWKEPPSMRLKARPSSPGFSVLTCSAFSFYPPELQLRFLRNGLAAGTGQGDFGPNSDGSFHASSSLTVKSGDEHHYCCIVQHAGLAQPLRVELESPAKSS
T5 sequence (P61769 21-119 limits assumed, chain 2 of 2): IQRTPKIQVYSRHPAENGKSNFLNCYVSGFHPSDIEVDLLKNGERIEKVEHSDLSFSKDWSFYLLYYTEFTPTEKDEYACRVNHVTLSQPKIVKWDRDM

T4 sequence (P08637 other isoform, or with tags, fused parts or gaps): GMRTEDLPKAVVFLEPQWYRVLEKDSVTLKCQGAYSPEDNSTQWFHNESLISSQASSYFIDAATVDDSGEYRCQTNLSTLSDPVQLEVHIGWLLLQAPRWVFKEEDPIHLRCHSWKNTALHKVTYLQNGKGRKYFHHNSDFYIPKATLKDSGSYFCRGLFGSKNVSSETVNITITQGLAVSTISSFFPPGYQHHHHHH
T1 sequence (P12314 other isoform, or with tags, fused parts or gaps): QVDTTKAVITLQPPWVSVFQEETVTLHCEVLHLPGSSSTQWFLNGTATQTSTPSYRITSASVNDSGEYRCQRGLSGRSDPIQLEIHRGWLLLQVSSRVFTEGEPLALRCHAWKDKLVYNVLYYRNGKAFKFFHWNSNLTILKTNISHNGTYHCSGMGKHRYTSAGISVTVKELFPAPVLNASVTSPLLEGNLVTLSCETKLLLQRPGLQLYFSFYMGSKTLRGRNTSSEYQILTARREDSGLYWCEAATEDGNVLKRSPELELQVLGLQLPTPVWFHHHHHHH

B1: anti-IgE E27 IgG1 Asp280Ala (antibody)
heavy: not shown
light: DIQLTQSPSSLSASVGDRVTITCRASKPVDGEGDSYLNWYQQKPGKAPKLLIYAASYLESGVPSRFSGSGSGTDFTLTISSLQPEDFATYYCQQSHEDPYTFGQGTKVEIKRTVAAPSVFIFPPSDEQLKSGTASVVCLLNNFYPREAKVQWKVDNALQSGNSQESVTEQDSKDSTYSLSSTLTLSKADYEKHKVYACEVTHQGLSSPVTKSFNRGEC
[1]
  ratio to native IgG1: 1.04 ratio
[2]
  ratio to native IgG1: 1.34 ratio
[3]
  ratio to native IgG1: 1.6 ratio
[4]
  ratio to native IgG1: 1.09 ratio
[5]
  ratio to native IgG1: 0.82 ratio

B2: anti-IgE E27 IgG1 Gln362Ala (antibody)
heavy: not shown
light: DIQLTQSPSSLSASVGDRVTITCRASKPVDGEGDSYLNWYQQKPGKAPKLLIYAASYLESGVPSRFSGSGSGTDFTLTISSLQPEDFATYYCQQSHEDPYTFGQGTKVEIKRTVAAPSVFIFPPSDEQLKSGTASVVCLLNNFYPREAKVQWKVDNALQSGNSQESVTEQDSKDSTYSLSSTLTLSKADYEKHKVYACEVTHQGLSSPVTKSFNRGEC
notes: also called Gln362A1a
[1]
  ratio to native IgG1: 1 ratio
[2]
  ratio to native IgG1: 1.03 ratio
[3]
  ratio to native IgG1: 1.02 ratio
[4]
  ratio to native IgG1: 1.02 ratio
[5]
  ratio to native IgG1: 1.25 ratio

B3: anti-IgE E27 IgG1 Asp376Ala (antibody)
heavy: not shown
light: DIQLTQSPSSLSASVGDRVTITCRASKPVDGEGDSYLNWYQQKPGKAPKLLIYAASYLESGVPSRFSGSGSGTDFTLTISSLQPEDFATYYCQQSHEDPYTFGQGTKVEIKRTVAAPSVFIFPPSDEQLKSGTASVVCLLNNFYPREAKVQWKVDNALQSGNSQESVTEQDSKDSTYSLSSTLTLSKADYEKHKVYACEVTHQGLSSPVTKSFNRGEC
[1]
  ratio to native IgG1: 1 ratio
[2]
  ratio to native IgG1: 0.8 ratio
[3]
  ratio to native IgG1: 0.68 ratio
[4]
  ratio to native IgG1: 0.55 ratio
[5]
  ratio to native IgG1: 1.45 ratio

B4: anti-IgE E27 IgG1 Asp312Ala (antibody)
heavy: not shown
light: DIQLTQSPSSLSASVGDRVTITCRASKPVDGEGDSYLNWYQQKPGKAPKLLIYAASYLESGVPSRFSGSGSGTDFTLTISSLQPEDFATYYCQQSHEDPYTFGQGTKVEIKRTVAAPSVFIFPPSDEQLKSGTASVVCLLNNFYPREAKVQWKVDNALQSGNSQESVTEQDSKDSTYSLSSTLTLSKADYEKHKVYACEVTHQGLSSPVTKSFNRGEC
[1]
  ratio to native IgG1: 1.01 ratio
[2]
  ratio to native IgG1: 1.2 ratio
[3]
  ratio to native IgG1: 1.19 ratio
[4]
  ratio to native IgG1: 1.23 ratio
[5]
  ratio to native IgG1: 1.5 ratio

B5: anti-IgE E27 IgG1 Gln295Ala (antibody)
heavy: not shown
light: DIQLTQSPSSLSASVGDRVTITCRASKPVDGEGDSYLNWYQQKPGKAPKLLIYAASYLESGVPSRFSGSGSGTDFTLTISSLQPEDFATYYCQQSHEDPYTFGQGTKVEIKRTVAAPSVFIFPPSDEQLKSGTASVVCLLNNFYPREAKVQWKVDNALQSGNSQESVTEQDSKDSTYSLSSTLTLSKADYEKHKVYACEVTHQGLSSPVTKSFNRGEC
notes: also called Q295(312)A
[1]
  ratio to native IgG1: 1 ratio
[2]
  ratio to native IgG1: 0.62 ratio
[3]
  ratio to native IgG1: 0.5 ratio
[4]
  ratio to native IgG1: 0.25 ratio
[5]
  ratio to native IgG1: 0.79 ratio

B6: anti-IgE E27 IgG1 Glu269Ala (antibody)
heavy: not shown
light: DIQLTQSPSSLSASVGDRVTITCRASKPVDGEGDSYLNWYQQKPGKAPKLLIYAASYLESGVPSRFSGSGSGTDFTLTISSLQPEDFATYYCQQSHEDPYTFGQGTKVEIKRTVAAPSVFIFPPSDEQLKSGTASVVCLLNNFYPREAKVQWKVDNALQSGNSQESVTEQDSKDSTYSLSSTLTLSKADYEKHKVYACEVTHQGLSSPVTKSFNRGEC
notes: also called E269(282)A
[1]
  ratio to native IgG1: 0.61 ratio
[2]
  ratio to native IgG1: 0.65 ratio
[3]
  ratio to native IgG1: 0.75 ratio
[4]
  ratio to native IgG1: 0.45 ratio
[5]
  ratio to native IgG1: 1.05 ratio

B7: anti-IgE E27 IgG1 Glu430Ala (antibody)
heavy: not shown
light: DIQLTQSPSSLSASVGDRVTITCRASKPVDGEGDSYLNWYQQKPGKAPKLLIYAASYLESGVPSRFSGSGSGTDFTLTISSLQPEDFATYYCQQSHEDPYTFGQGTKVEIKRTVAAPSVFIFPPSDEQLKSGTASVVCLLNNFYPREAKVQWKVDNALQSGNSQESVTEQDSKDSTYSLSSTLTLSKADYEKHKVYACEVTHQGLSSPVTKSFNRGEC
[1]
  ratio to native IgG1: 1.05 ratio
[2]
  ratio to native IgG1: 1.24 ratio
[3]
  ratio to native IgG1: 1.28 ratio
[4]
  ratio to native IgG1: 1.2 ratio
[5]
  ratio to native IgG1: 0.93 ratio

B8: anti-IgE E27 IgG1 Glu382Ala (antibody)
heavy: not shown
light: DIQLTQSPSSLSASVGDRVTITCRASKPVDGEGDSYLNWYQQKPGKAPKLLIYAASYLESGVPSRFSGSGSGTDFTLTISSLQPEDFATYYCQQSHEDPYTFGQGTKVEIKRTVAAPSVFIFPPSDEQLKSGTASVVCLLNNFYPREAKVQWKVDNALQSGNSQESVTEQDSKDSTYSLSSTLTLSKADYEKHKVYACEVTHQGLSSPVTKSFNRGEC
[1]
  ratio to native IgG1: 1.06 ratio
[2]
  ratio to native IgG1: 0.95 ratio
[3]
  ratio to native IgG1: 0.84 ratio
[4]
  ratio to native IgG1: 0.76 ratio
[5]
  ratio to native IgG1: 1.51 ratio

B9: anti-IgE E27 IgG1 Gln311Ala (antibody)
heavy: not shown
light: DIQLTQSPSSLSASVGDRVTITCRASKPVDGEGDSYLNWYQQKPGKAPKLLIYAASYLESGVPSRFSGSGSGTDFTLTISSLQPEDFATYYCQQSHEDPYTFGQGTKVEIKRTVAAPSVFIFPPSDEQLKSGTASVVCLLNNFYPREAKVQWKVDNALQSGNSQESVTEQDSKDSTYSLSSTLTLSKADYEKHKVYACEVTHQGLSSPVTKSFNRGEC
[1]
  ratio to native IgG1: 0.93 ratio
[2]
  ratio to native IgG1: 1.11 ratio
[3]
  ratio to native IgG1: 1.19 ratio
[4]
  ratio to native IgG1: 0.92 ratio
[5]
  ratio to native IgG1: 1.62 ratio

B10: anti-IgE E27 IgG1 Glu333Ala (antibody)
heavy: not shown
light: DIQLTQSPSSLSASVGDRVTITCRASKPVDGEGDSYLNWYQQKPGKAPKLLIYAASYLESGVPSRFSGSGSGTDFTLTISSLQPEDFATYYCQQSHEDPYTFGQGTKVEIKRTVAAPSVFIFPPSDEQLKSGTASVVCLLNNFYPREAKVQWKVDNALQSGNSQESVTEQDSKDSTYSLSSTLTLSKADYEKHKVYACEVTHQGLSSPVTKSFNRGEC
notes: also called G54 E333A
[1]
  ratio to native IgG1: 0.98 ratio
[2]
  ratio to native IgG1: 0.92 ratio
[3]
  ratio to native IgG1: 0.76 ratio
[4]
  ratio to native IgG1: 1.27 ratio
[5]
  ratio to native IgG1: 1.03 ratio

B11: anti-IgE E27 IgG1 Glu272Ala (antibody)
heavy: not shown
light: DIQLTQSPSSLSASVGDRVTITCRASKPVDGEGDSYLNWYQQKPGKAPKLLIYAASYLESGVPSRFSGSGSGTDFTLTISSLQPEDFATYYCQQSHEDPYTFGQGTKVEIKRTVAAPSVFIFPPSDEQLKSGTASVVCLLNNFYPREAKVQWKVDNALQSGNSQESVTEQDSKDSTYSLSSTLTLSKADYEKHKVYACEVTHQGLSSPVTKSFNRGEC
[1]
  ratio to native IgG1: 1.05 ratio
[2]
  ratio to native IgG1: 1.23 ratio
[3]
  ratio to native IgG1: 1.53 ratio
[4]
  ratio to native IgG1: 0.8 ratio
[5]
  ratio to native IgG1: 1.34 ratio

B12: anti-IgE E27 IgG1 His268Ala (antibody)
heavy: not shown
light: DIQLTQSPSSLSASVGDRVTITCRASKPVDGEGDSYLNWYQQKPGKAPKLLIYAASYLESGVPSRFSGSGSGTDFTLTISSLQPEDFATYYCQQSHEDPYTFGQGTKVEIKRTVAAPSVFIFPPSDEQLKSGTASVVCLLNNFYPREAKVQWKVDNALQSGNSQESVTEQDSKDSTYSLSSTLTLSKADYEKHKVYACEVTHQGLSSPVTKSFNRGEC
notes: also called H281A (268 in EU numbering); G16 H268A
[1]
  ratio to native IgG1: 1.09 ratio
[2]
  ratio to native IgG1: 1.21 ratio
[3]
  ratio to native IgG1: 1.44 ratio
[4]
  ratio to native IgG1: 0.54 ratio
[5]
  ratio to native IgG1: 1.02 ratio

B13: anti-IgE E27 IgG1 Glu258Ala (antibody)
heavy: not shown
light: DIQLTQSPSSLSASVGDRVTITCRASKPVDGEGDSYLNWYQQKPGKAPKLLIYAASYLESGVPSRFSGSGSGTDFTLTISSLQPEDFATYYCQQSHEDPYTFGQGTKVEIKRTVAAPSVFIFPPSDEQLKSGTASVVCLLNNFYPREAKVQWKVDNALQSGNSQESVTEQDSKDSTYSLSSTLTLSKADYEKHKVYACEVTHQGLSSPVTKSFNRGEC
[1]
  ratio to native IgG1: 1.18 ratio
[2]
  ratio to native IgG1: 1.33 ratio
[3]
  ratio to native IgG1: 1.65 ratio
[4]
  ratio to native IgG1: 1.12 ratio
[5]
  ratio to native IgG1: 1.18 ratio

From US7183387 (Genentech, dated 2007)
